B1: TGFβ2: TGFβ2 (R&D Systems), member of the TGFβ family (protein, UniProt P61812 303-414, looked up)
Transforming growth factor …: ALDAAYCFRNVQDNCCLRPLYIDFKRDLGWKWIHEPKGYNANFCAGACPYLWSSDTQHSRVLSLYNTINPEASASPCCVSQDLEPLTILYYIGKTPKIEQLSNMIVKSCKCS
B2: TGFβ3: TGFβ3 (R&D Systems), member of the TGFβ family (protein, UniProt P10600 301-412, looked up)
Transforming growth factor …: ALDTNYCFRNLEENCCVRPLYIDFRQDLGWKWVHEPKGYYANFCSGPCPYLRSADTTHSTVLGLYNTLNPEASASPCCVPQDLEPLTILYYVGRTPKVEQLSNMVVKSCKCS

Experiments:
[1] = test system: LIF expression in GBM neurospheres; assay: LIF mRNA by qRT-PCR in GBM neurospheres; format: cell-based, human; conditions: 100 pM, 3 hours, medium without serum
Protocol: FIG. 3. TGFβ induces the expression of LIF in PCTC and GBM neurospheres. (A) PCTC cells of the 11 samples of the indicated GEM (GBM1-11) were treated with 100 pM TGFβ1 for 3 hours in medium without serum or left untreated, and the expression levels of LIF were determined by means of qRT-PCR. The g-actin was determined as an internal normalization control. (B) GBM neurosphere cells were treated as in A and the expression levels of LIF were determined by means of qRT-PCR as in A. (C) GBM neurospheres were incubated with 100 pM TGFβ1 and/or 2 μM TβRI inhibitor for 3 hours in medium without serum and the mRNA levels of LIF were determined by means of qRT-PCR as in A. (D) GBM1 neurospheres were incubated with 100 pM TGFβ1, TGFβ2 and TGFβ3 for 3 hours in medium without serum and the mRNA levels of LIF were determined by means of qRT-PCR as in A. (E) The levels of LIF protein secreted were determined by means of ELISA in GBM1 neurospheres after 48 hours of treatment with 100 pM TGFβ1.
The U373MG and A172 cells were a generous gift from J. Rich and D. Bigner and were cultured in DMEM with 10% fetal bovine serum (FBS). The primary culture of tumor cells (PCTC) and the GBM neurospheres were generated as described (Bruna et al., (2007) Cancer Cell 11, 147-160; Gunther et al., (2008) Oncogene. May 1; 27(20):2897-909). Briefly, the samples of tumors were processed in the 30 minutes after the surgical resection. The ground pieces of the samples of human gliomas were digested with 200 U/ml collagenase I (Sigma) and 500 U/ml of DNase I (Sigma) in PBS for 2 hours at 37° C. and with constant vigorous stirring. The suspension of individual cells was filtered through a 70 μm cell filter (BD Falcon) and washed with PBS. Finally, the cells were resuspended and subsequently cultured in DMEM with 10% FBS, for the culture of PCTCs, or in neurosphere medium in the case of the GBM neurospheres. The neurospheres of normal human neuroprogenitors were generated from human embryonic cerebral cortex tissue (12-16 weeks after the conception) collected after voluntary abortions. The samples were processed and cultured as described (Poltavtseva et al. (2002) Brain Res Dev Brain Res 134, 149-154). The neurosphere medium consists of neurobasal medium (Gibco) supplemented with B27 (Gibco), L-glutamine (Gibco), penicillin/streptomycin, and growth factors (20 ng/mL EGF and 20 ng/mL FGF-2 (Peprotech)).
(§1) qRT-PCR was performed using Taqman probes from Applied Biosystems, according to the manufacturer's recommendations. The reactions were carried out in a ABI 7000 sequence detector (Perkin Elmer) and the results were expressed as the fold change calculated by means of the DDCt method relative to the control sample or the first quantified sample. The ribosomal unit of 18S or β-actin were used as internal normalization controls.
It was decided to investigate the molecular mechanisms responsible for the effect of TGFβ on GICs. Gene responses to TGFβ in GBM cells which could be involved in the regulation of the self-renewal of GICs were investigated. In a previous work (Bruna et al., 2007), transcriptome analyses were conducted in the U373MG glioma cell line treated with TGFβ and/or a TβRI inhibitor. LIF was among the 63 gene responses to TGFβ in U373MG which were dependent on the activity of TβRI. […] A panel of PCTCs derived from 11 different human GBMs was treated with TGFβ for 3 hours and the levels of LIF mRNA were determined.

[2] = test system: LIF expression in normal human neuroprogenitors; assay: LIF mRNA in neurospheres of normal human neuroprogenitors; format: cell-based; conditions: 100 pM, 3 hours, compared with GBM neurospheres
Protocol: FIG. 8. Effect of TGFβ on the capacity of self-renewal of normal human neuroprogenitors. (A) Immunocytochemistry of the indicated markers was performed in human neuroprogenitor neurospheres. (B) Neurospheres of the sample of GBM1 and of human neuroprogenitors were incubated with the indicated members of the 100 pM TGFβ family for 3 hours and the mRNA levels of LIF were determined. (C, D) Neurosphere cells of normal human neuroprogenitors were incubated in the same conditions that have been described above in FIG. 1D in the presence of 100 pM TGFβ1 or 20 ng/ml LIF for 7 days and the number of newly formed neurospheres (C) and the number total of cells (D) were determined.
The U373MG and A172 cells were a generous gift from J. Rich and D. Bigner and were cultured in DMEM with 10% fetal bovine serum (FBS). The primary culture of tumor cells (PCTC) and the GBM neurospheres were generated as described (Bruna et al., (2007) Cancer Cell 11, 147-160; Gunther et al., (2008) Oncogene. May 1; 27(20):2897-909). Briefly, the samples of tumors were processed in the 30 minutes after the surgical resection. The ground pieces of the samples of human gliomas were digested with 200 U/ml collagenase I (Sigma) and 500 U/ml of DNase I (Sigma) in PBS for 2 hours at 37° C. and with constant vigorous stirring. The suspension of individual cells was filtered through a 70 μm cell filter (BD Falcon) and washed with PBS. […]
as §1, with “The ribosomal unit of 18S or β-actin were used as internal normalization controls.” left out
It was decided to assess whether this effect was specific to tumor cells or was also present in normal neuroprogenitor cells. […] First, it was determined if TGFβ induced LIF in normal human neuroprogenitors. […]

[3] = test system: GBM neurospheres; assay: Differentiation of GBM neurospheres (neuroprogenitor markers, adhesion); format: cell-based, human; conditions: GBM1 neurospheres, 7 days without EGF or FGF, 100 pM TGFβ1 or 20 ng/ml LIF
Protocol: FIG. 7. TGFβ and LIF prevent the differentiation of GBM neurospheres. (A) Immunocytochemistry of the indicated proteins was performed in neurospheres derived from GBM1 treated with 100 pM TGFβ1 or 20 ng/ml LIF for 7 days in the absence of growth factors and the last 3 days on slides coated with poly-L-lysine. (B) The mRNA levels of Musashi-1 (Msi-1), Sox2 and Nestin were determined in GBM1 neurospheres after 7 days of the indicated treatments without growth factors. The RNA levels of 18S were used as an internal normalization control.
The immunocytochemistry of neurospheres and differentiated neurospheres was performed as described (Geshwind et al., 2001) using the following antibodies: anti-nestin (Chemicon), anti-GFAP (Dako), anti-TuJ1 (Chemicon), anti-04 (Chemicon), anti-Sox2 (Chemicon), anti-α-tubulin (Sigma). The nuclei were counterstained with 4′,6-diamino-2-phenylindole (DAPI).
as §1
The neurospheres derived from GBMs grown in the absence of growth factors and seeded in poly-L-lysine-coated plates tend to differentiate losing the expression of the neuroprogenitor markers Musashi-1, Sox2 and Nestin, and being adhered to the culture plate. It was decided to evaluate the effect of TGFβ and LIF on this differentiation process. The neurospheres were cultured in the presence of TGFβ or LIF without EGF or FGF for 7 days and subsequently processed for immunohistochemical staining and qRT-PCR assays for determining the levels of the neuroprogenitor markers Musashi-1, Sox2 and Nestin.

Molecule | LIF transcript in neurospheres derived from patients [1] | induction of LIF mRNA in normal human neuroprogenitor neurospheres [2] | expression of Musashi-1, Sox2 and Nestin (immunocytochemistry, qRT-PCR) [3]
B1 | capable of inducing LIF | did not induce LIF | –
B2 | capable of inducing LIF | did not induce LIF | maintained the expression

From US11999782B2, “Therapeutic agents for the treatment of diseases associated with undesired cell proliferation” (Fundació Privada Institutció Catalana de Recerca I Estudis …, priority 2009, dated 2024)
